Source: publication PMC7085636, “A Graphene-PEDOT:PSS Modified Paper-Based Aptasensor for Electrochemical Impedance Spectroscopy Detection of Tumor Marker”

Biological target: carcinoembryonic antigen (CEA) (UniProt P06731 35-685)
Test: electrochemical impedance spectroscopy (aptasensor); PBS; linear 0.77-14 ng/mL, LOD 0.45 ng/mL, saturated above 21 ng/mL; PBS pH 7.4 or undiluted human serum; surface blocked with 1% BSA; K3[Fe(CN)6] and KCl listed as reagents; binding temperature not stated
Conditions: protein: commercial

carcinoembryonic antigen (CEA), sequence (P06731 35-685): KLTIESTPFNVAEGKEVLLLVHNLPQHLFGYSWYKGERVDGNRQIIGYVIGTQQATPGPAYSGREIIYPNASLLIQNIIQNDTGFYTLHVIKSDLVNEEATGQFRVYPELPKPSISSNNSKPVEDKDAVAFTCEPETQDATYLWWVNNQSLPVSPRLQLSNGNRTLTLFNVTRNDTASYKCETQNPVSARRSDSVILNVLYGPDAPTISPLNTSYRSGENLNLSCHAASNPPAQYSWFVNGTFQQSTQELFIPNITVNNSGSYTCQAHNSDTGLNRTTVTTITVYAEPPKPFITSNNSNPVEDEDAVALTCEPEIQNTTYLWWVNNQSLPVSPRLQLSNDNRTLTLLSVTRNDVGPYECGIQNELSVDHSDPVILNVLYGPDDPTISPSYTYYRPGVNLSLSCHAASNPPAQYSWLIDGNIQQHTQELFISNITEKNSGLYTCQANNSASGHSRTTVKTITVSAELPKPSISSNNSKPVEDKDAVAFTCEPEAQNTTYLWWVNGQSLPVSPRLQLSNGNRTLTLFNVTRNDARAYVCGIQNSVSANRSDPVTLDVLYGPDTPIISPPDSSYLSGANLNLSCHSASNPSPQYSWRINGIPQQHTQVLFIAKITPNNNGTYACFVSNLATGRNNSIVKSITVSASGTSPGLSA

B1: CEA DNA aptamer (ssDNA)
DNA: GACGATAGCGGTGACGGCACAGACGTCCCGCATCCTCCG
modifications: 5'-NH2
binding result: binds
